According to patent US20120316071A1 (published 2012):

B1: Fab VH5-51_IGHD5-18*01>3_IGHJ4*01 G100K/G104T G24T/S28R/G35V (H:KT TRV) & V3-4_IGLJ1*01 V91L/S96P S57D (Fab, V domains shown)
VH: EVQLVQSGAEVKKPGESLKISCKTSGYRFTSYWIVWVRQMPGKGLEWMGIIYPGDSDTRYSPSFQGQVTISADKSISTAYLQWSSLKASDTAMYYCARRKYSYTYDYFDYWGQGTLVTVSS
VL: QTVVTQEPSFSVSPGGTVTLTCGLSSGSVSTSYYPSWYQQTPGQAPRTLIYSTNTRDSGVPDRFSGSILGNKAALTITGAQADDESDYYCLLYMGPGISYVFGTGTKVTVL
notes: Fab made in E. coli: VH in plasmid A (CH1, His6 and Flag tags), VL in plasmid E (lambda CL); also called H:KT TRV & L:LP S57D
B2: Fab VH5-51_IGHD5-18*01>3_IGHJ4*01 G100K/G104T G24T/S28R/G35V (H:KT TRV) & V3-4_IGLJ1*01 V91L/S96P S57E (Fab, V domains shown)
VH: EVQLVQSGAEVKKPGESLKISCKTSGYRFTSYWIVWVRQMPGKGLEWMGIIYPGDSDTRYSPSFQGQVTISADKSISTAYLQWSSLKASDTAMYYCARRKYSYTYDYFDYWGQGTLVTVSS
VL: QTVVTQEPSFSVSPGGTVTLTCGLSSGSVSTSYYPSWYQQTPGQAPRTLIYSTNTRESGVPDRFSGSILGNKAALTITGAQADDESDYYCLLYMGPGISYVFGTGTKVTVL
notes: Fab made in E. coli: VH in plasmid A (CH1, His6 and Flag tags), VL in plasmid E (lambda CL); also called H:KT TRV & L:LP S57E
B3: Fab VH5-51_IGHD5-18*01>3_IGHJ4*01 G100K/G104T G24T/S28R/G35V (H:KT TRV) & V3-4_IGLJ1*01 V91L/S96P S57F (Fab, V domains shown)
VH: EVQLVQSGAEVKKPGESLKISCKTSGYRFTSYWIVWVRQMPGKGLEWMGIIYPGDSDTRYSPSFQGQVTISADKSISTAYLQWSSLKASDTAMYYCARRKYSYTYDYFDYWGQGTLVTVSS
VL: QTVVTQEPSFSVSPGGTVTLTCGLSSGSVSTSYYPSWYQQTPGQAPRTLIYSTNTRFSGVPDRFSGSILGNKAALTITGAQADDESDYYCLLYMGPGISYVFGTGTKVTVL
notes: Fab made in E. coli: VH in plasmid A (CH1, His6 and Flag tags), VL in plasmid E (lambda CL); also called H:KT TRV & L:LP S57F
B4: Fab VH5-51_IGHD5-18*01>3_IGHJ4*01 G100K/G104T G24T/S28R/G35V (H:KT TRV) & V3-4_IGLJ1*01 V91L/S96P S57G (Fab, V domains shown)
VH: EVQLVQSGAEVKKPGESLKISCKTSGYRFTSYWIVWVRQMPGKGLEWMGIIYPGDSDTRYSPSFQGQVTISADKSISTAYLQWSSLKASDTAMYYCARRKYSYTYDYFDYWGQGTLVTVSS
VL: QTVVTQEPSFSVSPGGTVTLTCGLSSGSVSTSYYPSWYQQTPGQAPRTLIYSTNTRGSGVPDRFSGSILGNKAALTITGAQADDESDYYCLLYMGPGISYVFGTGTKVTVL
notes: Fab made in E. coli: VH in plasmid A (CH1, His6 and Flag tags), VL in plasmid E (lambda CL); also called H:KT TRV & L:LP S57G
B5: Fab VH5-51_IGHD5-18*01>3_IGHJ4*01 G100K/G104T G24T/S28R/G35V (H:KT TRV) & V3-4_IGLJ1*01 V91L/S96P S57H (Fab, V domains shown)
VH: EVQLVQSGAEVKKPGESLKISCKTSGYRFTSYWIVWVRQMPGKGLEWMGIIYPGDSDTRYSPSFQGQVTISADKSISTAYLQWSSLKASDTAMYYCARRKYSYTYDYFDYWGQGTLVTVSS
VL: QTVVTQEPSFSVSPGGTVTLTCGLSSGSVSTSYYPSWYQQTPGQAPRTLIYSTNTRHSGVPDRFSGSILGNKAALTITGAQADDESDYYCLLYMGPGISYVFGTGTKVTVL
notes: Fab made in E. coli: VH in plasmid A (CH1, His6 and Flag tags), VL in plasmid E (lambda CL); also called H:KT TRV & L:LP S57H
B6: Fab VH5-51_IGHD5-18*01>3_IGHJ4*01 G100K/G104T G24T/S28R/G35V (H:KT TRV) & V3-4_IGLJ1*01 V91L/S96P S57I (Fab, V domains shown)
VH: EVQLVQSGAEVKKPGESLKISCKTSGYRFTSYWIVWVRQMPGKGLEWMGIIYPGDSDTRYSPSFQGQVTISADKSISTAYLQWSSLKASDTAMYYCARRKYSYTYDYFDYWGQGTLVTVSS
VL: QTVVTQEPSFSVSPGGTVTLTCGLSSGSVSTSYYPSWYQQTPGQAPRTLIYSTNTRISGVPDRFSGSILGNKAALTITGAQADDESDYYCLLYMGPGISYVFGTGTKVTVL
notes: Fab made in E. coli: VH in plasmid A (CH1, His6 and Flag tags), VL in plasmid E (lambda CL); also called H:KT TRV & L:LP S57I
B7: Fab VH5-51_IGHD5-18*01>3_IGHJ4*01 G100K/G104T G24T/S28R/G35V (H:KT TRV) & V3-4_IGLJ1*01 V91L/S96P S57K (Fab, V domains shown)
VH: EVQLVQSGAEVKKPGESLKISCKTSGYRFTSYWIVWVRQMPGKGLEWMGIIYPGDSDTRYSPSFQGQVTISADKSISTAYLQWSSLKASDTAMYYCARRKYSYTYDYFDYWGQGTLVTVSS
VL: QTVVTQEPSFSVSPGGTVTLTCGLSSGSVSTSYYPSWYQQTPGQAPRTLIYSTNTRKSGVPDRFSGSILGNKAALTITGAQADDESDYYCLLYMGPGISYVFGTGTKVTVL
notes: Fab made in E. coli: VH in plasmid A (CH1, His6 and Flag tags), VL in plasmid E (lambda CL); also called H:KT TRV & L:LP S57K
B8: Fab VH5-51_IGHD5-18*01>3_IGHJ4*01 G100K/G104T G24T/S28R/G35V (H:KT TRV) & V3-4_IGLJ1*01 V91L/S96P S57L (Fab, V domains shown)
VH: EVQLVQSGAEVKKPGESLKISCKTSGYRFTSYWIVWVRQMPGKGLEWMGIIYPGDSDTRYSPSFQGQVTISADKSISTAYLQWSSLKASDTAMYYCARRKYSYTYDYFDYWGQGTLVTVSS
VL: QTVVTQEPSFSVSPGGTVTLTCGLSSGSVSTSYYPSWYQQTPGQAPRTLIYSTNTRLSGVPDRFSGSILGNKAALTITGAQADDESDYYCLLYMGPGISYVFGTGTKVTVL
notes: Fab made in E. coli: VH in plasmid A (CH1, His6 and Flag tags), VL in plasmid E (lambda CL); also called H:KT TRV & L:LP S57L
B9: Fab VH5-51_IGHD5-18*01>3_IGHJ4*01 G100K/G104T G24T/S28R/G35V (H:KT TRV) & V3-4_IGLJ1*01 V91L/S96P S57M (Fab, V domains shown)
VH: EVQLVQSGAEVKKPGESLKISCKTSGYRFTSYWIVWVRQMPGKGLEWMGIIYPGDSDTRYSPSFQGQVTISADKSISTAYLQWSSLKASDTAMYYCARRKYSYTYDYFDYWGQGTLVTVSS
VL: QTVVTQEPSFSVSPGGTVTLTCGLSSGSVSTSYYPSWYQQTPGQAPRTLIYSTNTRMSGVPDRFSGSILGNKAALTITGAQADDESDYYCLLYMGPGISYVFGTGTKVTVL
notes: Fab made in E. coli: VH in plasmid A (CH1, His6 and Flag tags), VL in plasmid E (lambda CL); also called H:KT TRV & L:LP S57M
B10: Fab VH5-51_IGHD5-18*01>3_IGHJ4*01 G100K/G104T G24T/S28R/G35V (H:KT TRV) & V3-4_IGLJ1*01 V91L/S96P S57N (Fab, V domains shown)
VH: EVQLVQSGAEVKKPGESLKISCKTSGYRFTSYWIVWVRQMPGKGLEWMGIIYPGDSDTRYSPSFQGQVTISADKSISTAYLQWSSLKASDTAMYYCARRKYSYTYDYFDYWGQGTLVTVSS
VL: QTVVTQEPSFSVSPGGTVTLTCGLSSGSVSTSYYPSWYQQTPGQAPRTLIYSTNTRNSGVPDRFSGSILGNKAALTITGAQADDESDYYCLLYMGPGISYVFGTGTKVTVL
notes: Fab made in E. coli: VH in plasmid A (CH1, His6 and Flag tags), VL in plasmid E (lambda CL); also called H:KT TRV & L:LP S57N

Each binder was assayed against T1, Recombinant Human DLL4 (delta-like protein 4) (human, UniProt Q9NR61 27-524) (assay: ELISA, DLL4 coated on plate, 100 nM Fab).
T1 construct: Bought recombinant human DLL4 (R&D Systems Cat#1506-D4/CF) coated on the ELISA plate; also called rHuman DLL4; Delta-like ligand 4

First: B1
Second: B2
The “ELISA Signal-blank (100 nM Fab)” value of the first is lower: 0.17 for the first, 0.2 for the second.

First: B3
Second: B4
The “ELISA Signal-blank (100 nM Fab)” value of the first is lower: 0.1 for the first, 0.23 for the second.

First: B5
Second: B6
The “ELISA Signal-blank (100 nM Fab)” value of the first is lower: 0.21 for the first, 0.24 for the second.

Compared with B7, B8 is higher in “ELISA Signal-blank (100 nM Fab)” value: 0.17 for the first, 0.3 for the second.

Compared with B9, B10 is lower in “ELISA Signal-blank (100 nM Fab)” value: 0.3 for the first, 0.24 for the second.
